Test results published in patent US20250152746A1, “BASE EDITING OF ANGPTL3 AND METHODS OF USING SAME FOR TREATMENT OF DISEASE” (Verve Therapeutics, Inc., priority 2020, published 2025).
In the oligonucleotide strings, read from the 5' end, every base follows the letter of its sugar. An asterisk marks phosphorothioate; unmarked linkages are phosphodiester. Other units and linkages are bracketed, terminal groups are in braces. A string of capitals states the bases alone. m = 2'-O-methyl; r = 2'-OH (RNA)

Assays:
[1] = system: PCSK9 gene; assay: PCSK9 gRNA/SpCas9 editing in primary human hepatocytes (Tables 2, 4); type: cell-based; conditions: SpCas9 mRNA MS002 1:1 by weight; for Human Primary Hepatocyte Editing % 100: 100 ng/RNA/mL; for Human Primary Hepatocyte Editing % 500: 500 ng/RNA/mL; for Human Primary Hepatocyte Editing % 2500: 2500 ng/RNA/mL
Summary of the method: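 Editing at the PCSK9 site quantified by NGS of PCR amplicons from genomic DNA. Input: SpCas9 mRNA with gRNA, 1:1 by weight, transfected into primary human hepatocytes at 2500, 500 or 100 ng RNA/mL (tracr-modified guides at 2500, 1250, 500, 250 ng/mL).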

[2] = system: PCSK9 gene; assay: PCSK9 gRNA/SpCas9 editing in primary cynomolgus hepatocytes (Tables 2, 22); type: cell-based, cynomolgus monkey; conditions: SpCas9 mRNA MS002 1:1 by weight; for Cyno Primary Hepatocyte Editing % 100: 100 ng/RNA/mL; for Cyno Primary Hepatocyte Editing % 500: 500 ng/RNA/mL; for Cyno Primary Hepatocyte Editing % 2500: 2500 ng/RNA/mL

| Molecule | Human Primary Hepatocyte Editing % 100 [1] [%] | Human Primary Hepatocyte Editing % 500 [1] [%] | Human Primary Hepatocyte Editing % 2500 [1] [%] | Cyno Primary Hepatocyte Editing % 100 [2] [%] | Cyno Primary Hepatocyte Editing % 500 [2] [%] | Cyno Primary Hepatocyte Editing % 2500 [2] [%] |
| --- | --- | --- | --- | --- | --- | --- |
| GA202: PCSK9 gRNA; protospacer AAGCGGGTCCCGTCCTCCTC (SEQ ID NO: 196) (nucleic acid, sugars from the 5' end m3 r94 m3, linkages s3 o93 s3 (s phosphorothioate, o phosphodiester), T or U not given here) guide: AAGCGGGUCCCGUCCUCCUCGUUUUAGAGCUAGAAAUAGCAAGUUAAAAUAAGGCUAGUCCGUUAUCAACUUGAAAAAGUGGCACCGAGUCGGUGCUUUU | 2.54 | 10.75 | 34.75 | 1.54 | 8.91 | 31.13 |
| GA203: PCSK9 gRNA; protospacer TGACCCTGCCCTCGATTTCC (SEQ ID NO: 197) (nucleic acid, sugars from the 5' end m3 r94 m3, linkages s3 o93 s3 (s phosphorothioate, o phosphodiester), T or U not given here) guide: UGACCCUGCCCUCGAUUUCCGUUUUAGAGCUAGAAAUAGCAAGUUAAAAUAAGGCUAGUCCGUUAUCAACUUGAAAAAGUGGCACCGAGUCGGUGCUUUU | 2.57 | 12.76 | 37.02 | 3.66 | 10.49 | 32.85 |
| GA158: PCSK9 gRNA; protospacer GCTAGCCTTGCGTTCCGAGG (SEQ ID NO: 152) (nucleic acid) guide: mG*mC*mU*rArGrCrCrUrUrGrCrGrUrUrCrCrGrArGrGrGrUrUrUrUrArGrArGrCrUrArGrArArArUrArGrCrArArGrUrUrArArArArUrArArGrGrCrUrArGrUrCrCrGrUrUrArUrCrArArCrUrUrGrArArArArArGrUrGrGrCrArCrCrGrArGrUrCrGrGrUrGrCrU*mU*mU*mU | 2 | 6.55 | 37.94 | 1.04 | 4.42 | 18.27 |
| GA204: PCSK9 gRNA; protospacer CACTCTGTATGCTGGTGTCT (SEQ ID NO: 198) (nucleic acid, sugars from the 5' end m3 r94 m3, linkages s3 o93 s3 (s phosphorothioate, o phosphodiester), T or U not given here) guide: CACUCUGUAUGCUGGUGUCUGUUUUAGAGCUAGAAAUAGCAAGUUAAAAUAAGGCUAGUCCGUUAUCAACUUGAAAAAGUGGCACCGAGUCGGUGCUUUU | 1.27 | 8.98 | 24.98 | 0.91 | 5.27 | 19.37 |
| GA205: PCSK9 gRNA; protospacer CCCTGCCCTCGATTTCCCGG (SEQ ID NO: 199) (nucleic acid, sugars from the 5' end m3 r94 m3, linkages s3 o93 s3 (s phosphorothioate, o phosphodiester), T or U not given here) guide: CCCUGCCCUCGAUUUCCCGGGUUUUAGAGCUAGAAAUAGCAAGUUAAAAUAAGGCUAGUCCGUUAUCAACUUGAAAAAGUGGCACCGAGUCGGUGCUUUU | 3.74 | 12.42 | 38.04 | 3.01 | 12.04 | 36.43 |
| GA206: PCSK9 gRNA; protospacer CCGGTGGTCACTCTGTATGC (SEQ ID NO: 200) (nucleic acid, sugars from the 5' end m3 r94 m3, linkages s3 o93 s3 (s phosphorothioate, o phosphodiester), T or U not given here) guide: CCGGUGGUCACUCUGUAUGCGUUUUAGAGCUAGAAAUAGCAAGUUAAAAUAAGGCUAGUCCGUUAUCAACUUGAAAAAGUGGCACCGAGUCGGUGCUUUU | 0.85 | 2.7 | 20.73 | 0.84 | 2.73 | 16.9 |
| GA207: PCSK9 gRNA; protospacer GGAAATCGAGGGCAGGGTCA (SEQ ID NO: 201) (nucleic acid, sugars from the 5' end m3 r94 m3, linkages s3 o93 s3 (s phosphorothioate, o phosphodiester), T or U not given here) guide: GGAAAUCGAGGGCAGGGUCAGUUUUAGAGCUAGAAAUAGCAAGUUAAAAUAAGGCUAGUCCGUUAUCAACUUGAAAAAGUGGCACCGAGUCGGUGCUUUU | 0.84 | 3.46 | 20.79 | 1.05 | 2.72 | 19.16 |
| GA208: PCSK9 gRNA; protospacer CCAGCATACAGAGTGACCAC (SEQ ID NO: 202) (nucleic acid, sugars from the 5' end m3 r94 m3, linkages s3 o93 s3 (s phosphorothioate, o phosphodiester), T or U not given here) guide: CCAGCAUACAGAGUGACCACGUUUUAGAGCUAGAAAUAGCAAGUUAAAAUAAGGCUAGUCCGUUAUCAACUUGAAAAAGUGGCACCGAGUCGGUGCUUUU | 1.38 | 5.72 | 25.76 | 1.15 | 6.01 | 25.07 |
| GA209: PCSK9 gRNA; protospacer CTTGGCAGTTGAGCACGCGC (SEQ ID NO: 203) (nucleic acid, sugars from the 5' end m3 r94 m3, linkages s3 o93 s3 (s phosphorothioate, o phosphodiester), T or U not given here) guide: CUUGGCAGUUGAGCACGCGCGUUUUAGAGCUAGAAAUAGCAAGUUAAAAUAAGGCUAGUCCGUUAUCAACUUGAAAAAGUGGCACCGAGUCGGUGCUUUU | 0.02 | 8.76 | 33.23 | 3.59 | 13.96 | 40.78 |
| GA210: PCSK9 gRNA; protospacer CTGCGCGTGCTCAACTGCCA (SEQ ID NO: 204) (nucleic acid, sugars from the 5' end m3 r94 m3, linkages s3 o93 s3 (s phosphorothioate, o phosphodiester), T or U not given here) guide: CUGCGCGUGCUCAACUGCCAGUUUUAGAGCUAGAAAUAGCAAGUUAAAAUAAGGCUAGUCCGUUAUCAACUUGAAAAAGUGGCACCGAGUCGGUGCUUUU | 0.04 | 5.86 | 14.3 | 4.5 | 19.72 | 54.88 |
| GA211: PCSK9 gRNA; protospacer TGCGCGTGCTCAACTGCCAA (SEQ ID NO: 205) (nucleic acid, sugars from the 5' end m3 r94 m3, linkages s3 o93 s3 (s phosphorothioate, o phosphodiester), T or U not given here) guide: UGCGCGUGCUCAACUGCCAAGUUUUAGAGCUAGAAAUAGCAAGUUAAAAUAAGGCUAGUCCGUUAUCAACUUGAAAAAGUGGCACCGAGUCGGUGCUUUU | 1.31 | 10.29 | 38.07 | 1.01 | 8.3 | 28.63 |
| GA212: PCSK9 gRNA; protospacer CGGGATGCCGGCGTGGCCAA (SEQ ID NO: 206) (nucleic acid, sugars from the 5' end m3 r94 m3, linkages s3 o93 s3 (s phosphorothioate, o phosphodiester), T or U not given here) guide: CGGGAUGCCGGCGUGGCCAAGUUUUAGAGCUAGAAAUAGCAAGUUAAAAUAAGGCUAGUCCGUUAUCAACUUGAAAAAGUGGCACCGAGUCGGUGCUUUU | 1.17 | 5.59 | 12.45 | 1.96 | 16.53 | 54.89 |
| GA213: PCSK9 gRNA; protospacer CGTGCTCAACTGCCAAGGGA (SEQ ID NO: 207) (nucleic acid, sugars from the 5' end m3 r94 m3, linkages s3 o93 s3 (s phosphorothioate, o phosphodiester), T or U not given here) guide: CGUGCUCAACUGCCAAGGGAGUUUUAGAGCUAGAAAUAGCAAGUUAAAAUAAGGCUAGUCCGUUAUCAACUUGAAAAAGUGGCACCGAGUCGGUGCUUUU | 2.17 | 8.77 | 24.28 | 2.73 | 16.35 | 45.22 |
| GA159: PCSK9 gRNA; protospacer GCGTTCCGAGGAGGACGGCC (SEQ ID NO: 153) (nucleic acid) guide: mG*mC*mG*rUrUrCrCrGrArGrGrArGrGrArCrGrGrCrCrGrUrUrUrUrArGrArGrCrUrArGrArArArUrArGrCrArArGrUrUrArArArArUrArArGrGrCrUrArGrUrCrCrGrUrUrArUrCrArArCrUrUrGrArArArArArGrUrGrGrCrArCrCrGrArGrUrCrGrGrUrGrCrU*mU*mU*mU | 1.35 | 3.74 | 14.68 | 1.19 | 3.69 | 12.21 |
